Our source for the pKd values is publication PMC9482650, “Quantitative fragmentomics allow affinity mapping of interactomes” (Nature Communications, 2022).

The test concerns the target NHERF4_1, Q86UT5-2. Put plainly: holdup assay. On the set-up: key: below the threshold = too weak to quantify, mostly under pKd 3.1 to 4.
Where [1] appears, read: plain residues with an end cap or a label only (N-terminal biotin on a linker: ado-ado).

Chain of NHERF4_1, Q86UT5-2 (Q86UT5 other isoform, or with tags, fused parts or gaps): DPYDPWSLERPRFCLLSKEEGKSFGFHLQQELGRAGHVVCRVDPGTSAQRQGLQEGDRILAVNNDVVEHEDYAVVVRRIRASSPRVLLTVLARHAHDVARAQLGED

In the case of RELVMRVTTV [MARCHF4, Q9P2E8], the negative logarithm of the Kd (pKd) entry under setting [1] is “below the threshold”.

Regarding DFRHKSSFVI [JAM3, Q9BX67], the pKd result under setting [1] is listed as “below the threshold”.

With DSATVRTYSC [PPFIA1, Q13136], the pKd under setting [1] is 3.98.

Consider EEDTAEKDEL [HSPA5, P11021], for which, under setting [1], the negative logarithm of the Kd (pKd) is 3.8.

For TGLWKSETTV [ADGRA2, Q96PE1], the pKd entry under setting [1] is “below the threshold”.

Take VRPGVKESLV [SCN4A, P35499]: under setting [1], the pKd came out at 3.76.

Consider FEEEAEEEVA [TUBB4B, P68371], for which the negative logarithm of the Kd (pKd) entry under setting [1] is listed as “below the threshold”.

As for GDHLDRRVVL [VAC14, Q08AM6], the negative-log Kd (pKd) under setting [1] came out at 4.07.

Take PMESGICTIV [TTC24, A2A3L6]: the pKd under setting [1] came out at 4.2.

With AEDEEIQTKM [UNC93A, Q86WB7], the pKd result under setting [1] is “below the threshold”.

QSPPNIYYKV [EFNB3, Q15768]: under setting [1], the pKd result was “below the threshold”.

In the case of ASGLDKRDYV [CLDN9, O95484], the pKd result under setting [1] is “below the threshold”.

The molecule SRPTKGPTLL [PLEKHH2, Q8IVE3] gave a pKd under setting [1] of 4.41.

For the molecule PLDSQQHTEV [FAT1, Q14517], the negative-log Kd (pKd) result under setting [1] was “below the threshold”.

With PELESKESVL [SLC1A4, P43007], the pKd under setting [1] was 3.9.

As for DHLGGGGESM [TNRC6A, Q8NDV7], the pKd result under setting [1] was “below the threshold”.

Under setting [1], ALPLPQSSTC [IGF1R, P08069] came in with a negative logarithm of the Kd (pKd) of 3.88.

YPKQMPLSQV [FZD8, Q9H461]: the negative-log Kd (pKd) entry under setting [1] is recorded as “below the threshold”.

Take PDSNPEESSV [SEMA4C, Q9C0C4]: the negative-log Kd (pKd) under setting [1] came to 3.7.

Under setting [1], IPGKEFDTPL [PLCB1, Q9NQ66] displayed a negative logarithm of the Kd (pKd) of 3.56.

As for VISERNSTTV [C3AR1, Q16581], the negative logarithm of the Kd (pKd) entry under setting [1] is recorded as “below the threshold”.

Regarding GQSVDLVFPV [AKIP1, Q9NQ31], the pKd entry under setting [1] was “below the threshold”.

Consider QELLEYETTV [XKR7, Q5GH72], for which the pKd entry under setting [1] is recorded as “below the threshold”.

As for TGPWKNETTV [ADGRA1, Q86SQ6], the negative logarithm of the Kd (pKd) entry under setting [1] was “below the threshold”.

Under setting [1], RTQSSDSAYV [GJD2, Q9UKL4] showed a negative-log Kd (pKd) of 3.6.

On to LGHTPFVDEL [UQCRC2, P22695], for which the negative logarithm of the Kd (pKd) under setting [1] came to 4.2.

Regarding QNRIITKTDV [SMCHD1, A6NHR9], the pKd result under setting [1] is “below the threshold”.

Take SRPRPDDLEI [GJA1, P17302]: the negative logarithm of the Kd (pKd) result under setting [1] is on record as “below the threshold”.

As to RPGFASESKV [ADRB1, P08588], under setting [1], the negative-log Kd (pKd) result is listed as “below the threshold”.

In the case of PDGEMMEVLI [AMOTL1, Q8IY63], the pKd entry under setting [1] was “below the threshold”.

For EWTDERQSKV [GAB3, Q8WWW8], under setting [1], the pKd entry is reported as “below the threshold”.

In the case of QYPGSPDSWV [PKP4, Q99569], the pKd under setting [1] was determined as 3.57.

With RQSILFSTEV [BCR, P11274], the negative logarithm of the Kd (pKd) under setting [1] is 3.68.

With NASRTRITFV [MCM7, P33993], the negative-log Kd (pKd) under setting [1] turned out to be 4.12.

In turn, ETSLVKGIDI [DENND5A, Q6IQ26] returned a pKd under setting [1] of 3.59.

Regarding GQETPLNTFC [MAP7D2, Q96T17], under setting [1], the negative-log Kd (pKd) amounted to 3.6.

With NLQEHSTTSV [RSBN1, Q5VWQ0], under setting [1], the negative-log Kd (pKd) result was “below the threshold”.

Turning to RDFDYIADWC [PKN2, Q16513], under setting [1], the negative logarithm of the Kd (pKd) was 4.34.

On to TMQMSLKDLL [GLA, P06280], for which, under setting [1], the pKd was determined as 3.99.

As for QFTLRHWLKV [SLC6A3, Q01959], the pKd entry under setting [1] was “below the threshold”.

For RRLQGTSSMV [GOLT1A, Q6ZVE7], the negative-log Kd (pKd) result under setting [1] is “below the threshold”.

Under setting [1], SVISRREWYV [NECTIN3, Q9NQS3] returned a negative logarithm of the Kd (pKd) of 3.49.

Under setting [1], DQPLEKSTKL [AKAP10, O43572] registered a pKd of 4.28.

As to RALRASESGI [ADGRE5, P48960], the pKd result under setting [1] is listed as “below the threshold”.

Take LSEFKAMDSF [CTNNA2, P26232]: the pKd under setting [1] was 4.37.

As for LEPAVRSSEL [SH2D3C, Q8N5H7], the negative-log Kd (pKd) under setting [1] is 4.18.

Under setting [1], PASAKGPLGV [CLDN19, Q8N6F1] showed a negative-log Kd (pKd) of 3.49.

RRVRKLPSTTL [RPS6KA1_-1P, Q15418]: for the setting “modified: phospho on T at position -1 from the C-terminal residue”, the pKd turned out to be 4.23.

As to GCQGETEDVL [PTH2R, P49190], under setting [1], the pKd worked out at 3.85.

Molecule SKSLERATQL [COMMD3, Q9UBI1] gave a pKd under setting [1] of 4.23.

In turn, LDKESFLTWL [YAP1, P46937] had a pKd under setting [1] of 4.15.

Take NRVDSKETEC [ADAM17, P78536]: under setting [1], the negative logarithm of the Kd (pKd) is 3.68.

Under setting [1], REVVMRVTTV [MARCHF9, Q86YJ5] yielded a pKd of 3.47.

For the molecule RRVRKLPSTTL [RPS6KA1_-2P, Q15418], the negative-log Kd (pKd) (modified: phospho on T at position -2 from the C-terminal residue) turned out to be 3.69.

Regarding LTAQEQPVYI [APBA1, Q02410], the negative-log Kd (pKd) entry under setting [1] is “below the threshold”.

The molecule HLRQQGSVEV [EPHB6, O15197] had a pKd under setting [1] of 3.71.

For GDGLDDEIAV [NOS1AP, O75052], under setting [1], the negative logarithm of the Kd (pKd) result is recorded as “below the threshold”.

As to NPETRDETQL [KCNT1, Q5JUK3], the pKd under setting [1] came out at 3.9.

REKKFFCTIL [GNG4, P50150] returned a pKd under setting [1] of 4.56.

Under setting [1], WRSKRTDTLL [RAMP3, O60896] had a negative logarithm of the Kd (pKd) of 4.33.

Regarding LRYARPADAL [PPP1R3G, B7ZBB8], the pKd under setting [1] is 4.29.

On to PAPGQHTTQI [STK16, O75716], for which the pKd result under setting [1] is “below the threshold”.

ANGLMQTSKL [SSTR5, P35346] displayed a pKd under setting [1] of 4.3.

Turning to SMLNRRTTPV [CACNG4, Q9UBN1], the pKd result under setting [1] is recorded as “below the threshold”.

Consider NVYGTESVKI [GRIA3, P42263], for which, under setting [1], the pKd was found to be 3.57.

In the case of LETREPTNTL [GRIP1, Q9Y3R0], the pKd result under setting [1] was “below the threshold”.

With FTLPAESSEI [PLEKHG7, Q6ZR37], the negative logarithm of the Kd (pKd) result under setting [1] is reported as “below the threshold”.
